The target in the experiment is 80S ribosomes from yeast cells expressing wild-type rpL10 (S. cerevisiae) (UniProt P41805). The experiment is described as follows: steady-state binding of [32P]-Sdo1p; ribosomes held on cysteine-charged sulfolink resin, unbound Sdo1p in the flow-through counted; 2 pmol ribosomes with 0.25–32 pmol Sdo1p and 100 µg polyU in 50 mM Tris-(OAc)2 pH 7.5, 50 mM NH4(OAc)2, 10 mM Mg(OAc)2, 2 mM DTT, 50 µl, 30°C 20 min.

Drawing on publication PMC3919601, this text covers stoichiometry N for one molecule.

A word on the stoichiometry N: it is the number of molecules, sites or subunits per partner or assembly.

Chain of UniProt P41805 (P41805 whole entry, looked up): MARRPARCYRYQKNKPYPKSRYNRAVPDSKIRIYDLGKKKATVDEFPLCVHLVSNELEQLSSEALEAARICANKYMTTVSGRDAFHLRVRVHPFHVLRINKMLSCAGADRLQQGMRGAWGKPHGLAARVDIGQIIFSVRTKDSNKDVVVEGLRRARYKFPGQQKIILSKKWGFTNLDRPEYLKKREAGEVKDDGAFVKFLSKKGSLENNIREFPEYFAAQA

B1: Sdo1p with a C-terminal 6× histidine tag and the phosphorylatable kemptide (natural protein)
chain: MPINQPSGQIKLTNVSLVRLKKARKRFEVACYQNKVQDYRKGIEKDLDEVLQIHQVFMNVSKGLVANKEDLQKCFGTTNVDDVIEEIMHKGEIQLSEKERQLMLNKVNNEMLTIVSAKCINPVSKKRYPPTMIHKALQELKFSPVINKPAKLQALEAIKLLVSKQIIPIVRAKMKVKVAISEPSRQPELIEKISKLIASSPGESTKPELDPWTCTGLIDPVNYRDLMTLCDKKGTVQVLDMAVIDNTTHN
modifications: 32P-phosphate on the kemptide (labelled with PKA and [32P]-γ-ATP, 40–60% label incorporation)
B1 showed a stoichiometry N of 1.
